Results taken from the supplement of paper PMC12764529.
± gives the half width of the 95% confidence interval.

What was measured:
[1] = folding stability dG unfold from trypsin proteolysis; higher = more stable
In short: (§1)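 Bayesian fitting of sequencing counts gave K50 for each design. Unfolding free energy followed by setting this against a sequence-predicted unfolded-state K50 and a shared folded-state K50, either per protease or with trypsin and chymotrypsin combined. The designs, under 80 residues and lacking cysteine, were digested in a PA-tagged cDNA display format at 11 threefold-diluted protease concentrations and without protease, and only those with AlphaFold2 dimer inter-PAE above 15 were kept.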

[2] = folding stability dG unfold from chymotrypsin proteolysis; higher = more stable
In short: as §1

[3] = folding stability dG unfold (combined trypsin and chymotrypsin); higher = more stable
In short: as §1

| Sequence | folding stability dG unfold [1] | folding stability dG unfold [2] | folding stability dG unfold [3] |
| --- | --- | --- | --- |
| MYVVRAKFKIKGEDGSEFEAETVILVEETPEEAKEKVEEKAREIAEELGLSLENITEIEVEVLSLDEELLPS [r1_159_TrMRF] | 6.04 ± 0.418 kJ/mol | 9.02 ± 0.628 kJ/mol | 8.88 ± 1.13 kJ/mol |
| NINPEFMEKIVNEIANRMNQQGWKIKKVDIEPYPNGMIDIKVNGREIEFPWPNGRWFRIKVEAKRVPPEQRS [r1_31_TrROS] | 8.09 ± 0.113 kJ/mol | 12 ± 0.318 kJ/mol | 10.1 ± 0.318 kJ/mol |
| NPGKPLEIDIEVDIFEFPGGKFAIITFPIRLPGNGYWVQIEFWINPDGGLVMKIDVYDPGNGKPEEITIPIS [r1_261_TrROS] | 13.7 ± 1.13 kJ/mol | 21.1 ± 0.837 kJ/mol | 19.4 ± 0.837 kJ/mol |
| NRYYRITIRNPDGMPIELFVRRSPNGEYMVRVKINMPNKKPKTIWFPFKSPEDILEEIRKHLPWDIEIEPWS [r1_137_TrROS] | 14.5 ± 0.372 kJ/mol | 13.7 ± 0.222 kJ/mol | 13.8 ± 0.364 kJ/mol |
| PETVTLTVEIEIEVRGPDGKPLTPEQVEELAKALAEELAAELGLEVEVTVTVEPVGPDGKYRITVTVTIRPS [r1_231_TrROS_Hall] | 18.6 ± 1.42 kJ/mol | 23.8 ± 3.6 kJ/mol | > 25.1 kJ/mol |
| PFPIYVKIERDGKPVREEPIPMDELQEMPVEEVIEYARELLRQFPGRKYKVEVYFPGGPREFEIKDPEDIKS [r1_477_TrROS] | 2.08 ± 0.297 kJ/mol | 6.59 ± 0.586 kJ/mol | 5.36 ± 0.669 kJ/mol |
| PISAEEAVDYAKHLAERLLKENPPGQEEVEIEFQSPNGWTVKIEIDPNNRKIDVEVYPRNGEPIAKAKIKVS [r1_370_TrROS] | 0.452 ± 0.502 kJ/mol | 1.58 ± 1.38 kJ/mol | 0.857 ± 1.46 kJ/mol |
| PKIVEILDAKRTPDGSLVIKIKIEPPEPNVKIKVIVKTPNSFKVYEIDPTKTTLEITIPGNVTNPKIEVFGS [r1_428_TrMRF] | 10.5 ± 0.711 kJ/mol | 11.1 ± 0.586 kJ/mol | 10.6 ± 1.42 kJ/mol |
| PKYVIKAVNPKVGEVKTIEVDDDPEKAIEALKALKKADPDIKFYISGVKSDELIEAAKEAGLEDLNFTEVES [r1_114_TrMRF] | 13.4 ± 0.628 kJ/mol | 16.8 ± 1.13 kJ/mol | 16.8 ± 1.34 kJ/mol |
| PLVLRLPDGAEAVRVEFFPERNTVVAFFRAPDRLLVVEVRFEPVGGGLLAPVRVRALPVPPTPEQLRLLAES [r1_154_TrMRF] | 5.66 ± 0.41 kJ/mol | 10.8 ± 0.372 kJ/mol | 9.07 ± 0.389 kJ/mol |
| PNFKIDIEIIKAEEVPPRPTDDGKPQPVRRIHIRIEVKGPPDQPPELANNIVEEIMAELQELGLPVHIHVWS [r1_305_TrROS] | 6.76 ± 0.226 kJ/mol | 7.98 ± 0.314 kJ/mol | 7.65 ± 0.879 kJ/mol |
| RVEVLENGEVIAVFPAEFLADIPPDDPLLLTLTLTLPDGYRVYVTFYNLPDGTVVAIARVEPVEVGPELAAS [r1_394_TrMRF] | 13.9 ± 0.586 kJ/mol | 18.7 ± 0.276 kJ/mol | 17.6 ± 0.502 kJ/mol |
| SAAAENGEITISVEVELDPETNTLTIKRVEITVNGKLIATATLTITLPPPPPEPEETVYVHPDDPEALKSAG [r14_571_TrROS_Hall] | 6.43 ± 0.0962 kJ/mol | 8.26 ± 0.159 kJ/mol | 7.75 ± 0.389 kJ/mol |
| SAAFAIKAIATPPNGKKYEILALDNGEGVLVFIENGSKEIPLEELIKLIENNPELKIEKIEIRPLSEFLSAG [r14_336_TrMRF] | 2.79 ± 0.46 kJ/mol | 2.03 ± 0.795 kJ/mol | 2.56 ± 0.711 kJ/mol |
| SAAFKGKNGKTIKITAKVKPNELTPEQVKELALAAVKNIFPENEKVEVKVKVEKLPNGEVLVYVEVKAESAG [r14_389_TrMRF] | 5.1 ± 0.159 kJ/mol | 1.43 ± 0.711 kJ/mol | 3.79 ± 0.356 kJ/mol |
| SAAKIYILPGNNVILVRPPLPNGPFGELVIPTKPSELENPEFLKEIVDEIRKAGIPFEATILPPGVPPESAG [r14_60_TrMRF] | 1.78 ± 0.372 kJ/mol | 5.6 ± 0.46 kJ/mol | 3.63 ± 1 kJ/mol |
| SAAKKLKELGYKVKKVEVLKPFTLPDGTTLTEYRITVELPTKTVTVDIIAPGESPEIAEEAALAAITASSAG [r14_726_TrMRF] | 5.24 ± 0.0669 kJ/mol | 13.21 ± 0.046 kJ/mol | 11.8 ± 0.213 kJ/mol |
| SAALAELLLNEGYEVRIEVEVREVRPRTLPGGGTTVELDITVRIELRPPPIPPPPLDPRLLRDEDGHLRSAG [r14_569_TrMRF] | 9.84 ± 0.155 kJ/mol | 8.18 ± 0.297 kJ/mol | 9.02 ± 0.418 kJ/mol |
| SAANPKDIVKAEIEIPGKYGAKFTVYTLPDGTVIVPAEVTLIEGDKPVKKPLVLVVDASTGKILAIADASAG [r14_630_TrMRF] | 4.58 ± 0.138 kJ/mol | 7.04 ± 0.251 kJ/mol | 6.12 ± 0.176 kJ/mol |
| SAARVTVTYDPATNTVTVTVEVEVDGVTVTVTATVTFVDGRLVLTVTVEVRPPPPPPSAEQLAALRAAASAG [r14_930_TrROS_Hall] | 12.2 ± 0.795 kJ/mol | 11.2 ± 0.301 kJ/mol | 11.5 ± 1.38 kJ/mol |
| SAAVTPLTETIPYTPEEARAAAEEVAAARAAALRAAGYRVLSVDVVEMEPGEYVIRMRLTVAAPDEALPSAG [r14_973_JUSTAS] | 9.28 ± 0.138 kJ/mol | 13.1 ± 0.151 kJ/mol | 12 ± 0.251 kJ/mol |
| SADDDEEQKEKQKPKPQIPIKPVATYNFPDHPFEIWEIDPDNGRIIIRFWGNGWWYEMDPEDGEWEWYPSAG [r14_359_TrROS] | 7.56 ± 0.268 kJ/mol | 9.45 ± 0.247 kJ/mol | 8.97 ± 0.586 kJ/mol |
| SADGKVKVVVNLRITVTPLSPDGTPQPLPAASIPLVFEGDANDPEAVEQAVRDVLDALAPLFPDAEIVVDSA [r9_1112_TrMRF] | 5.15 ± 0.343 kJ/mol | 8.3 ± 0.192 kJ/mol | 7.25 ± 0.544 kJ/mol |
| SADPPDAVKIEIRIYMMEYDPDGKWEQREFNIEIEVAPDGHIIIRLGNWWIVIDPKEGEVTEIFPGFRFSAG [r14_821_TrROS] | 14.4 ± 0.544 kJ/mol | 15.3 ± 0.753 kJ/mol | 13.1 ± 1.63 kJ/mol |
| SADRIKINVMTHQSPDGRPYYMVSIRIPGNGKEIMGPIDSPEDAEEQAKEIADKLEKEGIPIEVEIYPMSAG [r14_263_TrROS] | 8.93 ± 0.276 kJ/mol | 7.63 ± 0.377 kJ/mol | 8.13 ± 0.711 kJ/mol |
| SADYVLYLVTLKVRRKVGDKEYELEVPLLILAPEDELDESEIEAIAREAAAELGAEVEEVKIERLPLNASAG [r14_278_TrMRF] | 16.5 ± 0.46 kJ/mol | 20.4 ± 0.36 kJ/mol | 19.5 ± 0.247 kJ/mol |
| SAEDEYEVELTFEAPLNEPEVIEKIKKELEELGFEIEEVKVEVLEDPKTVKVTLKARVKGIPPEKLKALSAG [r14_956_TrMRF] | 7.44 ± 0.138 kJ/mol | 8.03 ± 0.414 kJ/mol | 7.63 ± 0.36 kJ/mol |
